Test [1] concerns the target full-length gp120 monomer (HIV-1, isolate ; JRCSF as …, UniProt P20871). Nature of the test: ITC. (In general: In ITC the heat of successive injections is recorded.)
In test [2] the target is full-length gp120 pre-complexed with CD4 (HIV-1, isolate  (JRCSF as …, UniProt P20871;P01730)). Nature of the test: ITC.

B1: PGT124 Fab (Fab, V domains shown)
VH: QVQLQESGPGLVRPSETLSVTCIVSGGSISNYYWTWIRQSPGKGLEWIGYISDRETTTYNPSLNSRAVISRDTSKNQLSLQLRSVTTADTAIYFCATARRGQRIYGVVSFGEFFYYYYMDVWGKGTAVTVSS
VL: SYVSPLSVALGETARISCGRQALGSRAVQWYQHKPGQAPILLIYNNQDRPSGIPERFSGTPDINFGTTATLTISGVEVGDEADYYCHMWDSRSGFSWSFGGATRLTVL
In general, Kd refers to the concentration at which binding is half-saturated. Turning to B1, the equilibrium dissociation constant (Kd) worked out at 38 nM in test [1] and 34 nM in test [2].

The record behind these values is paper PMC4278586 (Cell, 2014).
